Experimental data: IntAct's records for PubMed 29892012

B1: Casein kinase II subunit alpha (Homo sapiens), P68400 (parent)
chain: MSGPVPSRARVYTDVNTHRPREYWDYESHVVEWGNQDDYQLVRKLGRGKYSEVFEAINITNNEKVVVKILKPVKKKKIKREIKILENLRGGPNIITLADIVKDPVSRTPALVFEHVNNTDFKQLYQTLTDYDIRFYMYEILKALDYCHSMGIMHRDVKPHNVMIDHEHRKLRLIDWGLAEFYHPGQEYNVRVASRYFKGPELLVDYQMYDYSLDMWSLGCMLASMIFRKEPFFHGHDNYDQLVRIAKVLGTEDLYDYIDKYNIELDPRFNDILGRHSRKRWERFVHSENQHLVSPEALDFLDKLLRYDHQSRLTAREAMEHPYFYTVVKDQARMGSSSMPGGSTPVSSANMMSGISSVPTPSPLGPLAGSPVIAAANPLGMPVPAAAGAQQ
partner: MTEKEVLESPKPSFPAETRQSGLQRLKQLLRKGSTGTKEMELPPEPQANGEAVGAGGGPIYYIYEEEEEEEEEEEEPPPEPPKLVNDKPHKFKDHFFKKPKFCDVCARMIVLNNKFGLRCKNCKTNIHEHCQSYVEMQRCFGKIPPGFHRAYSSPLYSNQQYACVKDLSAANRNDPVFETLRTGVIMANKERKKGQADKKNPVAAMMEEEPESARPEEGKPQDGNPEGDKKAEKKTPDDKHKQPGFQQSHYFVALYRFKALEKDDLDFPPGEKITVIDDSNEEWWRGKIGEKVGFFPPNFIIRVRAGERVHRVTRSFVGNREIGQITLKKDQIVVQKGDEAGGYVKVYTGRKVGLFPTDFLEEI
B2: F-box/LRR-repeat protein 12 (Homo sapiens), Q9NXK8 (parent)
chain: MATLVELPDSVLLEIFSYLPVRDRIRISRVCHRWKRLVDDRWLWRHVDLTLYTMRPKVMWHLLRRYMASRLHSLRMGGYLFSGSQAPQLSPALLRALGQKCPNLKRLCLHVADLSMVPITSLPSTLRTLELHSCEISMAWLHKQQDPTVLPLLECIVLDRVPAFRDEHLQGLTRFRALRSLVLGGTYRVTETGLDAGLQELSYLQRLEVLGCTLSADSTLLAISRHLRDVRKIRLTVRGLSAPGLAVLEGMPALESLCLQGPLVTPEMPSPTEILSSCLTMPKLRVLELQGLGWEGQEAEKILCKGLPHCMVIVRACPKESMDWWM
B3: Vacuolar protein-sorting-associated protein 25 (Homo sapiens), Q9BRG1 (parent)
chain: MAMSFEWPWQYRFPPFFTLQPNVDTRQKQLAAWCSLVLSFCRLHKQSSMTVMEAQESPLFNNVKLQRKLPVESIQIVLEELRKKGNLEWLDKSKSSFLIMWRRPEEWGKLIYQWVSRSGQNNSVFTLYELTNGEDTEDEEFHGLDEATLLRALQALQQEHKAEIITVSDGRGVKFF
partner: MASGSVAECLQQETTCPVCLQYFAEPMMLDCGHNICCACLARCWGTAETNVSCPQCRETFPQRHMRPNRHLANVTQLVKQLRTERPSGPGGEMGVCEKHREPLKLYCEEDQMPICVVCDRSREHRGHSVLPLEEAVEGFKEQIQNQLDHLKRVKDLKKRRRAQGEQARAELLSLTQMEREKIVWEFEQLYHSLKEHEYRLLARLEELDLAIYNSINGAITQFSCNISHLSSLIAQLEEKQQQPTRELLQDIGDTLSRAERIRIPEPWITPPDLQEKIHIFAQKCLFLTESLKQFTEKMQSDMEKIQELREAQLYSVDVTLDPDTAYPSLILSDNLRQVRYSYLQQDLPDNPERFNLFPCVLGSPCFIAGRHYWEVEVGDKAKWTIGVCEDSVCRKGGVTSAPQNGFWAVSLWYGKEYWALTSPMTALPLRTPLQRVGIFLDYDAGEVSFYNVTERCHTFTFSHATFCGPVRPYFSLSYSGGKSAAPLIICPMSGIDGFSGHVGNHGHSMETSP
B4: Pre-B-cell leukemia transcription factor 4 (Homo sapiens), Q9BYU1 (parent)
chain: MAAPPRPAPSPPAPRRLDTSDVLQQIMAITDQSLDEAQARKHALNCHRMKPALFSVLCEIKEKTVVSIRGIQDEDPPDAQLLRLDNMLLAEGVCRPEKRGRGGAVARAGTATPGGCPNDNSIEHSDYRAKLSQIRQIYHSELEKYEQACREFTTHVTNLLQEQSRMRPVSPKEIERMVGAIHGKFSAIQMQLKQSTCEAVMTLRSRLLDARRKRRNFSKQATEVLNEYFYSHLNNPYPSEEAKEELARKGGLTISQVSNWFGNKRIRYKKNMGKFQEEATIYTGKTAVDTTEVGVPGNHASCLSTPSSGSSGPFPLPSAGDAFLTLRTLASLQPPPGGGCLQSQAQGSWQGATPQPATASPAGDPGSINSSTSN
partner: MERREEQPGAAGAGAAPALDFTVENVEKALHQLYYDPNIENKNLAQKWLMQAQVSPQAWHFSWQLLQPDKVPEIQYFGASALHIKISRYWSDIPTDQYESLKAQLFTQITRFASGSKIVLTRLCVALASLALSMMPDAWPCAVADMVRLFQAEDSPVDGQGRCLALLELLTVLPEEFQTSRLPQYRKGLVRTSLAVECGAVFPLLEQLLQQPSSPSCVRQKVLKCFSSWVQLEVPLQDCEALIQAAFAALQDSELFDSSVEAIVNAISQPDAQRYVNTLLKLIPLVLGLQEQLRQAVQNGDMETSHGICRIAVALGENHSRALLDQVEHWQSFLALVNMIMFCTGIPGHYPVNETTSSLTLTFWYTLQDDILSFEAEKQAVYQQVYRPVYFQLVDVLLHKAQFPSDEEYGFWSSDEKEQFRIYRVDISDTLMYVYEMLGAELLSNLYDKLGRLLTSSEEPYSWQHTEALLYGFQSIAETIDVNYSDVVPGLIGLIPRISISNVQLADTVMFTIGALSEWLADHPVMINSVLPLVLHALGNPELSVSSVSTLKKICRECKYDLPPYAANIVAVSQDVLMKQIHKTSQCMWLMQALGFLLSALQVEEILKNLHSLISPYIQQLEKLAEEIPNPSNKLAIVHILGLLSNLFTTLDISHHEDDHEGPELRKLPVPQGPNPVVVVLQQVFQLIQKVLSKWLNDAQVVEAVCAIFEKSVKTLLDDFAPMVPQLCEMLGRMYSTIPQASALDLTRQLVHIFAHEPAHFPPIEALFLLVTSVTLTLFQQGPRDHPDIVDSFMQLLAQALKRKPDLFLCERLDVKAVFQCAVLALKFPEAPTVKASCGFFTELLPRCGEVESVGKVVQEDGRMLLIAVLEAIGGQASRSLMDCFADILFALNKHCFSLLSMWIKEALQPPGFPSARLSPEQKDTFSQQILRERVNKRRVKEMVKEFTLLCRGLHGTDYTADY
B5: Inositol polyphosphate 5-phosphatase K (Homo sapiens), Q9BT40 (parent)
chain: MSSRKLSGPKGRRLSIHVVTWNVASAAPPLDLSDLLQLNNRNLNLDIYVIGLQELNSGIISLLSDAAFNDSWSSFLMDVLSPLSFIKVSHVRMQGILLLVFAKYQHLPYIQILSTKSTPTGLFGYWGNKGGVNICLKLYGYYVSIINCHLPPHISNNYQRLEHFDRILEMQNCEGRDIPNILDHDLIIWFGDMNFRIEDFGLHFVRESIKNRCYGGLWEKDQLSIAKKHDPLLREFQEGRLLFPPTYKFDRNSNDYDTSEKKRKPAWTDRILWRLKRQPCAGPDTPIPPASHFSLSLRGYSSHMTYGISDHKPVSGTFDLELKPLVSAPLIVLMPEDLWTVENDMMVSYSSTSDFPSSPWDWIGLYKVGLRDVNDYVSYAWVGDSKVSCSDNLNQVYIDISNIPTTEDEFLLCYYSNSLRSVVGISRPFQIPPGSLREDPLGEAQPQI
partner: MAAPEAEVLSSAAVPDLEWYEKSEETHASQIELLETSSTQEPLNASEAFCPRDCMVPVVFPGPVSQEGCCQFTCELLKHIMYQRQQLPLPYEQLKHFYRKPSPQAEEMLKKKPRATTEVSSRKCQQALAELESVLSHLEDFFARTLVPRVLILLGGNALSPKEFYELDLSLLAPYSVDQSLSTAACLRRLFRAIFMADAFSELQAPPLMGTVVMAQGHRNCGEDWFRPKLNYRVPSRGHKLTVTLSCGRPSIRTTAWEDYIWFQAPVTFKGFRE

Variants of: B1
Conditions: with stac3_human STAC3, Q96MF2

Row | effect of a mutation on the interaction | Variant
1 | with no effect | K198R

Variants of: B2
Conditions: with dock8_human DOCK8, Q8NF50
dock8_human DOCK8, Q8NF50, sequence (Q8NF50 whole entry): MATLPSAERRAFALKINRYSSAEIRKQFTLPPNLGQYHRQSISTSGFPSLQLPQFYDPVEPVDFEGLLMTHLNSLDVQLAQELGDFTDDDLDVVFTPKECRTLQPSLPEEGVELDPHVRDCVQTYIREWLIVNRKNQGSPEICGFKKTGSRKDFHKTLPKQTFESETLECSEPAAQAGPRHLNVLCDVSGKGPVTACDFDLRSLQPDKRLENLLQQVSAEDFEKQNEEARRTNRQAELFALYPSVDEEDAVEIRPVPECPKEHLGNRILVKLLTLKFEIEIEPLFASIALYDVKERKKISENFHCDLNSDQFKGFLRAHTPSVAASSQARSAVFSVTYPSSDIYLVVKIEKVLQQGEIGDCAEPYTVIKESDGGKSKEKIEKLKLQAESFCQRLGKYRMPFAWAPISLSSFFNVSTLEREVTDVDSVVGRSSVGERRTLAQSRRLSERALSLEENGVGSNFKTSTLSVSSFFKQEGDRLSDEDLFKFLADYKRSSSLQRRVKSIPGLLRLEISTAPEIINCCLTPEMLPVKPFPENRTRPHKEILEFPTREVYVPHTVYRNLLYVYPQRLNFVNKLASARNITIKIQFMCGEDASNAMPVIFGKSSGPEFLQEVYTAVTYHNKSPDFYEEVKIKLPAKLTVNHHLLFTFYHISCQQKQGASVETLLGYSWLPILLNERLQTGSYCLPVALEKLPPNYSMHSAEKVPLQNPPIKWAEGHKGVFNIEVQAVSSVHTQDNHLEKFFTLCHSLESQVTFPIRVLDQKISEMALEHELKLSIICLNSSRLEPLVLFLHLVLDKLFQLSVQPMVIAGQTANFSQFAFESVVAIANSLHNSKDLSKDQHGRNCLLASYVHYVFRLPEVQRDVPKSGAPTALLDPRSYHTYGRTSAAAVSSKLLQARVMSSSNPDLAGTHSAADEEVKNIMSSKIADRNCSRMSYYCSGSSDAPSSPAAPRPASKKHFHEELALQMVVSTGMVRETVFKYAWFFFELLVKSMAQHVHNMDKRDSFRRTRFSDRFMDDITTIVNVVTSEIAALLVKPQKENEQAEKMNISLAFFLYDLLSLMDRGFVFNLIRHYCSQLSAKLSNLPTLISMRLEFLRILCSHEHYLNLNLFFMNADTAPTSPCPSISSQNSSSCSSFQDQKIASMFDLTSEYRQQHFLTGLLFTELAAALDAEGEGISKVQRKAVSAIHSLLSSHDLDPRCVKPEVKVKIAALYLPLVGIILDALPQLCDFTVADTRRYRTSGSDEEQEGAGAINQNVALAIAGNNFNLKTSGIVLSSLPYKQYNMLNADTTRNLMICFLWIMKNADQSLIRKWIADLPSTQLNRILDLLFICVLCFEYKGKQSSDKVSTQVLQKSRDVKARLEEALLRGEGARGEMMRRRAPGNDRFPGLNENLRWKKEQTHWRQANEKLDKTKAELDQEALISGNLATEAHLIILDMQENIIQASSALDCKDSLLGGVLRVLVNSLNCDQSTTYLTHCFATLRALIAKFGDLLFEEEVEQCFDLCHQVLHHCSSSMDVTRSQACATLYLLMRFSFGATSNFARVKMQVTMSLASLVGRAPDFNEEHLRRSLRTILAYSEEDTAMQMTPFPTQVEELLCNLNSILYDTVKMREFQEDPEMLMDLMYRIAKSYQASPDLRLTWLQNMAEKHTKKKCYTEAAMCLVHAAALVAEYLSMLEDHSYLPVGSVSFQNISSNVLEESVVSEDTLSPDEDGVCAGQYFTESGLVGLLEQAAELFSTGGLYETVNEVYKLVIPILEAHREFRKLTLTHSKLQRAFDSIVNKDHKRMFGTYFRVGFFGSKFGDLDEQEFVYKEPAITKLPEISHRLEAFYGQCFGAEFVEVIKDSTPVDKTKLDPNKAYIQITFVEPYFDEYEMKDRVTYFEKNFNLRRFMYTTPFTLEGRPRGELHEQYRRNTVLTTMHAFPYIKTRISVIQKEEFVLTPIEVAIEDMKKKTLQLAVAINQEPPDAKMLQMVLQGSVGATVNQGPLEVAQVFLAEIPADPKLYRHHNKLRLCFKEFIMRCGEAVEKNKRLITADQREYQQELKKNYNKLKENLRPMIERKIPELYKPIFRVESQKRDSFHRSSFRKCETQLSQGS

Row | effect of a mutation on the interaction | Variant
2 | with no effect | I313V

Variants of: B3
Conditions: with tri27_human TRIM27, P14373

Row | effect of a mutation on the interaction | Variant
3 | disrupting interaction strength | P58Q

Variants of: B4
Conditions: with ipo13_human IPO13, O94829

Row | effect of a mutation on the interaction | Variant
4 | disrupting interaction strength | A247T

Variants of: B5
Conditions: with md2bp_human MAD2L1BP

Row | effect of a mutation on the interaction | Variant
5 | disrupting interaction strength | R437K
